From patent US6982321

Assays:
[1] = target: partially purified Campath-1 antigen (obtained from a glycolipid extract from human spleen) (human) (UniProt P31358); assay: direct binding assay on coated partially purified Campath-1 antigen, biotin anti-rat IgG2b detection; concentration at 50% maximal binding
[2] = target: Campath-1 antigen on human lymphocytes (human) (UniProt P31358); assay: cell-based or functional assay
[3] = target: hen eggwhite lysozyme (hen) (UniProt P00698); assay: fluorescence titration with lysozyme, 50 nM antibody, 25°
Chain of hen eggwhite lysozyme (hen) (P00698 19-147 limits assumed): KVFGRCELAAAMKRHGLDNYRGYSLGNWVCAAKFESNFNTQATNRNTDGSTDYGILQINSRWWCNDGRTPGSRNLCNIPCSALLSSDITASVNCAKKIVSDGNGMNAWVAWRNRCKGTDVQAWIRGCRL

[4] = target: hen eggwhite lysozyme (hen) (UniProt P00698); assay: fluorescence quenching titration with hen eggwhite lysozyme
[5] = target: partially purified Campath-1 antigen (obtained from a glycolipid extract from human spleen) (human) (UniProt P31358); assay: direct binding assay on coated partially purified Campath-1 antigen; concentration at 50% binding

Chain of RaVHCAMP-RaIgG2B (P20761 whole entry): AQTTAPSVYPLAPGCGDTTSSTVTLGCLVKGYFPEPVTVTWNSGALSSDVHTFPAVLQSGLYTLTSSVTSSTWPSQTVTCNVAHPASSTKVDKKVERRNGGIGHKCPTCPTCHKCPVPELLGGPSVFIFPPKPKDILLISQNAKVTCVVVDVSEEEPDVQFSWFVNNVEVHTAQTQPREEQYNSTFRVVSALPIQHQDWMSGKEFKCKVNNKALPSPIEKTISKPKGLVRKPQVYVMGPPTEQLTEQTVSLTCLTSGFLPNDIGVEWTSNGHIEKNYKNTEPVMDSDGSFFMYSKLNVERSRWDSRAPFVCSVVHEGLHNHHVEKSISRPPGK
Chain of HuVHCAMP(Ser27 to Phe, Ser30 to Thr)-RaIgG2B (P20761 whole entry): as above
Chain of HuVHCAMP(Ser27 to Phe)-RaIgG2B (P20761 whole entry): as above
Chain of HuVHCAMP-RaIgG2B (P20761 whole entry): as above

Substance: HuVHCAMP-RaIgG2B (from UniProt P20761 1-333) (antibody)
- EC50 [1]: 27.3 µg/mL

Substance: HuVHCAMP(Ser27 to Phe)-RaIgG2B (from UniProt P20761 1-333) (antibody)
- Concentration of antibody in ug/ml at 50% binding or lysis: complement lysis [2]: 16.3 µg/mL
- EC50 [1]: 1.8 µg/mL

Substance: D1.3 (H2K2) (antibody)
- equivalence point (binding sites per mole) (binding sites per mole) [3]: 1.8
- Kd [4]: 14.4 nM

Substance: RaVHCAMP-RaIgG2B (from UniProt P20761 1-333) (antibody)
- Concentration of antibody in ug/ml at 50% binding or lysis: complement lysis [2]: 2.1 µg/mL
- EC50 [5]: 1.01 µg/mL
- EC50 [1]: 0.7 µg/mL

Substance: D1.3 (H2K2) (reassociated) (antibody)
- Kd [4]: 11.4 nM

Substance: recombinant D1.3 (H*2K2) (reassociated) (antibody)
- Kd [4]: 9.2 nM

Substance: HuVHCAMP(Ser27 to Phe, Ser30 to Thr)-RaIgG2B (from UniProt P20761 1-333) (antibody)
- Concentration of antibody in ug/ml at 50% binding or lysis: complement lysis [2]: 17.6 µg/mL
- EC50 [1]: 2 µg/mL
